These results are taken from patent US20060263342A1 (YEDA RESEARCH AND DEVELOPMENT, published 2006).

Test [1] addresses murine B7.1 on HCT/HHD/B7.1 cells (murine) (UniProt Q00609). Briefly: flow cytometry on HCT/HHD/B7.1 cells.
Test [2] has as its target T1, HLA-A2.1 on T2 cells (human).
T1 construct: MHC class I molecule without the tested peptide
The test can be described thus: T2 stabilization assay, acid stripped T2 cells with peptide and recombinant β2m, BB7.2 staining, FACS.
Method: (§1) T2 cells were acid stripped and incubated with the indicated peptide and recombinant β2m or with β2m alone as a negative control. […] Cells were stained with BB7.2 mAb and analyzed by FACS. The number of positive cells above control level is indicated for each of the peptides.

In test [3] the target is T1, HLA-A2.1 on T2 cells. The test can be described thus: T2 stabilization assay, FACS.
Method: as §1

Sequence of murine B7.1 on HCT/HHD/B7.1 cells (murine) (Q00609 38-306): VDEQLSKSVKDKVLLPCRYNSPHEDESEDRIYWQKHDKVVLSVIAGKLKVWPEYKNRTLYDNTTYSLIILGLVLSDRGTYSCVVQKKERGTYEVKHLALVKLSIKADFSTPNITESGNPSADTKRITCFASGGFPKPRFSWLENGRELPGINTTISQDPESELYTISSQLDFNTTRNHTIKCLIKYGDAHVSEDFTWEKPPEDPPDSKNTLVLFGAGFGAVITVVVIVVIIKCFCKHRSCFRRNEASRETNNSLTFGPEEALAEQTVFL

In the case of CTLA-4-Ig fusion protein (Fc fusion), the percent stained cells in test [1] was found to be 100%.

B1: peptide 3-5 (from human 1-8D interferon induced transmembrane protein 2) (peptide)
peptide: LILGIFMTI
notes: also called 1-8D peptide 3-5
Take B1: in the test with HLA-A2.1 on T2 cells [2], the binding result was “binds”.

B2: peptide 3-7 (from human 1-8D and 1-8U interferon inducible genes) (peptide)
peptide: KCLNIWALI
notes: also called 1-8D peptide 3-7
B2: in the test with HLA-A2.1 on T2 cells [3], the binding result was “binds”.
